Source: PMC1800861, “Characterization of an Oct1 orthologue in the channel catfish, Ictalurus punctatus: A negative regulator of immunoglobulin gene transcription?”

Experiments:
[1] = biological target: T1, Oct2β (in vitro translated) (Ictalurus punctatus (channel catfish), UniProt O13007 1-480); test: EMSA; 1x Promega binding buffer (from 5x, composition not given), 30 min preincubation at room temperature then 30 min with probe; 5% native PAGE at 4°C; 100x competitor; pH and salt not given; extract EMSA as in Ross et al; settings: protein: ivt; label: 32P-dATP Klenow fill-in; 5' overhang 4 nt on both strands as annealed; labeled by Klenow fill-in
T1 sequence: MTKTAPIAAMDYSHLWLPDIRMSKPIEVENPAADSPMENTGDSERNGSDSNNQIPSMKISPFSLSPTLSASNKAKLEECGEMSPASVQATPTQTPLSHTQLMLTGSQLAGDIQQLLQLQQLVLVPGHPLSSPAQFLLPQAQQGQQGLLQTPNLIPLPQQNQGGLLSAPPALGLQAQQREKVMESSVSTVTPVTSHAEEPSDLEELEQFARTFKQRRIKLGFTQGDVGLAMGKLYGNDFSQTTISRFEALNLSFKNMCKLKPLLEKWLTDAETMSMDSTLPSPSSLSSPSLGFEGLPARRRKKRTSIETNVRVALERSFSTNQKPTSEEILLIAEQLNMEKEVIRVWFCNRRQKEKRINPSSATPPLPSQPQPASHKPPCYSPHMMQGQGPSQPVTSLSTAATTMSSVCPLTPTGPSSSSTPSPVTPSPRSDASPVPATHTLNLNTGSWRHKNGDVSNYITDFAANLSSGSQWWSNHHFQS

[2] = biological target: T2, Oct1 (in vitro translated) (Ictalurus punctatus (channel catfish; …, UniProt O57602 1-623); test: EMSA; cold self competitor inhibits; anti-Oct1 abolishes shift; 1x Promega binding buffer (from 5x, composition not given), 30 min preincubation at room temperature then 30 min with probe; 5% native PAGE at 4°C; 100x competitor; pH and salt not given; extract EMSA as in Ross et al; settings: protein: ivt; label: 32P-dATP Klenow fill-in; 5' overhang 4 nt on both strands as annealed; labeled by Klenow fill-in
T2 sequence: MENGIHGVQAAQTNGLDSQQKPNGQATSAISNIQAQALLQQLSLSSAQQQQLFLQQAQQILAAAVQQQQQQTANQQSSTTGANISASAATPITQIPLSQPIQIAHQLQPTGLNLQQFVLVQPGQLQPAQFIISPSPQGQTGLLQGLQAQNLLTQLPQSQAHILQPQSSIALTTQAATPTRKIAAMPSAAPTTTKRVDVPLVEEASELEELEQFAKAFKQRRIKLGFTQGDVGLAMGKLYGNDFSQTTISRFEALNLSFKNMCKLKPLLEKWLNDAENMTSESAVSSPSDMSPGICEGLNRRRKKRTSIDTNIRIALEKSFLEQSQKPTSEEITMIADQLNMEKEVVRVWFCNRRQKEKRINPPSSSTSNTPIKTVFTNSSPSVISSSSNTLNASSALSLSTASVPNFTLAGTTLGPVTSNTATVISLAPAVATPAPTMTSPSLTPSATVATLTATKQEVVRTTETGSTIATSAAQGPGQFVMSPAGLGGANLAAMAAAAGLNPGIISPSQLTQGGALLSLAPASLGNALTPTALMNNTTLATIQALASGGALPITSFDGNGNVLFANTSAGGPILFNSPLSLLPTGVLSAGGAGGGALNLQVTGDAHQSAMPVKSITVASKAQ

B1: Eμ3' core enhancer first octamer (G-2110/G-2111) (dsDNA)
DNA 1: GCAAAACACTGCATGTAAATAGTCTAAT
DNA 2: CATTATTAGACTATTTACATGCAGTGTT
B1: binds [1]; binds [2].
